Holding throughout (test): CIDOP with next-generation sequencing, recovery of peaks
Assay [1] concerns the target nucleosomes having both H3K9me3 and H3K36me3 (H3K36me2/3).
Assay [2] concerns the target nucleosomes having neither H3K9me3 nor H3K36me3.
Assay [3] addresses nucleosomes having only H3K36me3.
Assay [4] has as its target nucleosomes having only H3K9me3.

With “artificial protein PM (PWWP domain of Dnmt3a, naturally occurring linker of 21 amino acids, chromodomain of MPP8, N-terminal GST tag) (designed binder)”, in assay [1], the percent of genome regions of this state detected by PM came out at 80.9%. In addition, the percent of genome regions of this state isolated by PM stood at 0.04% in assay [2], 6.66% in assay [3] and 6.2% in assay [4].
